# Assay results from the supplement of paper PMC10065799, “High-throughput profiling of sequence recognition by tyrosine kinases and SH2 domains using bacterial peptide display” (eLife, 2023).
# How the values were obtained:
# Grb2 SH2 = Grb2 SH2 (UniProt P62993); test: SH2 binding enrichment of the phosphorylated peptide, bacterial display (enrichment ratio); higher = better substrate or ligand; peptides without Tyr show the background
# c-Src SH2 = test: as above
# SHP2-C SH2 = test: as above
# MERTK = MERTK (UniProt Q12866); test: phosphorylation enrichment, bacterial display (enrichment ratio); higher = better substrate or ligand; peptides without Tyr show the background
# Fer (mouse) = test: as above
# Fes = Fes (UniProt P07332); test: as above
# Jak2 = Jak2 (UniProt O60674); test: as above
# EPHB1 = EPHB1 (UniProt P54762); test: as above
# EPHB2 = EPHB2 (UniProt P29323); test: as above
# Fyn = Fyn (UniProt P06241); test: as above
# FGFR3 = FGFR3 (UniProt P22607); test: as above
# c-Src = test: as above
# c-Abl (mouse) = test: as above
# FGFR1 = FGFR1 (UniProt P11362); test: as above
# AncSZ = test: as above
# Hck = Hck (UniProt P08631); test: as above
# 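Throughout, for SH2 binding enrichment of the phosphorylated peptide, bacterial display: peptide library displayed on the E. coli surface as eCPX fusions, selected cells deep-sequenced, score is each peptide's frequency after selection divided by its frequency in the input.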
# 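Throughout, for phosphorylation enrichment, bacterial display: 11-residue human phosphosite peptides and single-mutation variants displayed on the E. coli surface, counted by deep sequencing, each peptide's frequency after selection divided by its frequency in the unselected input library; frequency after pTyr selection over input frequency; kinase dosed for 20-30% of maximal phosphorylation in three min.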
# Chain of Fyn (P06241 whole entry, looked up): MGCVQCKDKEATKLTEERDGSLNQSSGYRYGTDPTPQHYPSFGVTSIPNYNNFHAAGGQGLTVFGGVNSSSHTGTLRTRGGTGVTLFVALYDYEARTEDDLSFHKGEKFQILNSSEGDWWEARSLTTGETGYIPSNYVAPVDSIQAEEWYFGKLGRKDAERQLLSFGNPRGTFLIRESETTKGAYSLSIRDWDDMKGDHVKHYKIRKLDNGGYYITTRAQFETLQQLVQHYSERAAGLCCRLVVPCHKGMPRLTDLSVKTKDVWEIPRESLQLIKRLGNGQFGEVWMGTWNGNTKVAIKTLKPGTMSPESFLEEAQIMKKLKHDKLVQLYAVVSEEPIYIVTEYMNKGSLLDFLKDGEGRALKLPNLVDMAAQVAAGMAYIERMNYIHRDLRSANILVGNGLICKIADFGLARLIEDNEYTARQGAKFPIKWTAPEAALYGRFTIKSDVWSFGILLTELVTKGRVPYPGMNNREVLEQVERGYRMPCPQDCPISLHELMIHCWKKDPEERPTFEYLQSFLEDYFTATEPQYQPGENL
# Chain of Fes (P07332 whole entry, looked up): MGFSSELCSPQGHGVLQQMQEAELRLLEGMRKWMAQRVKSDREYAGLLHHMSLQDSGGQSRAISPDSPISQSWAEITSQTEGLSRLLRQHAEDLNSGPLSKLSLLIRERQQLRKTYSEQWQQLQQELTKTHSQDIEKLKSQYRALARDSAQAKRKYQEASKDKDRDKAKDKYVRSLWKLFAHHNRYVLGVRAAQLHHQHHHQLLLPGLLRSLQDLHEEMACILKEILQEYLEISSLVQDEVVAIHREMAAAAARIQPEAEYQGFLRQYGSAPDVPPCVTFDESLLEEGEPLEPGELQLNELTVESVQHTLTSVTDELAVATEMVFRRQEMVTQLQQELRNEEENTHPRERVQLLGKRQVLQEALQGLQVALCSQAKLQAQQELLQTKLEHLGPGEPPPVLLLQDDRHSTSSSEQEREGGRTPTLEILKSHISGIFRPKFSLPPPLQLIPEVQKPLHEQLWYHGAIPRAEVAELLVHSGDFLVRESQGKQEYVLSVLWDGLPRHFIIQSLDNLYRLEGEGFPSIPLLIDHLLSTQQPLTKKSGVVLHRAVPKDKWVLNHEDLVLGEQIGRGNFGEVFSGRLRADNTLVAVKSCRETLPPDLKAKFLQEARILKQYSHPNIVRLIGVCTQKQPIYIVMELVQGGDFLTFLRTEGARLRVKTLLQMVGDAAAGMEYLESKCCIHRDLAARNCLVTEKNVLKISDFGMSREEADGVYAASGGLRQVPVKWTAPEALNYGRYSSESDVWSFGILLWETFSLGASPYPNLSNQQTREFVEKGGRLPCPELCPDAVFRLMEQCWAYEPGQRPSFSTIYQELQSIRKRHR
# Chain of FGFR1 (P11362 whole entry, looked up): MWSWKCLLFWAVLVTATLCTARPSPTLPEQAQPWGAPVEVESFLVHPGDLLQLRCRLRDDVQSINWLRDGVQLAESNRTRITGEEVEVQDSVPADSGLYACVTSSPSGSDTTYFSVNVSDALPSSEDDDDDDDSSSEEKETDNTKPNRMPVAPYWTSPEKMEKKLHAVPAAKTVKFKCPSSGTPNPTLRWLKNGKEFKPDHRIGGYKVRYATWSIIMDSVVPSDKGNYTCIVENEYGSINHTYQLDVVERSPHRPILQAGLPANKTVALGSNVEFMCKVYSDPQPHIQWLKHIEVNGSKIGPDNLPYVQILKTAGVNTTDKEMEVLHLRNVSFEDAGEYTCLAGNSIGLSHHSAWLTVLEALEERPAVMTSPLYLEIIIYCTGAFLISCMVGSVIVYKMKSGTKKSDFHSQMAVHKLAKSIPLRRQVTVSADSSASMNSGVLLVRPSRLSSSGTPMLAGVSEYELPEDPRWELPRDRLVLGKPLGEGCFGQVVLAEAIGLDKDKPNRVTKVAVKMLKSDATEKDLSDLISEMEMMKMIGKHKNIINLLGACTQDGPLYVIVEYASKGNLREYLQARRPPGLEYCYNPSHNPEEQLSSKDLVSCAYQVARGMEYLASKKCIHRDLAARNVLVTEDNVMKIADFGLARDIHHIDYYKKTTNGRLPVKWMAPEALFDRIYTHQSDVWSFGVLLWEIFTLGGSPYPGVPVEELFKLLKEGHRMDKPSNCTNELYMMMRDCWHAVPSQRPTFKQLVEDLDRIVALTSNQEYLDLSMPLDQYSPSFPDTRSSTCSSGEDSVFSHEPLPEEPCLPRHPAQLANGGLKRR
# Chain of EPHB2 (P29323 whole entry, looked up): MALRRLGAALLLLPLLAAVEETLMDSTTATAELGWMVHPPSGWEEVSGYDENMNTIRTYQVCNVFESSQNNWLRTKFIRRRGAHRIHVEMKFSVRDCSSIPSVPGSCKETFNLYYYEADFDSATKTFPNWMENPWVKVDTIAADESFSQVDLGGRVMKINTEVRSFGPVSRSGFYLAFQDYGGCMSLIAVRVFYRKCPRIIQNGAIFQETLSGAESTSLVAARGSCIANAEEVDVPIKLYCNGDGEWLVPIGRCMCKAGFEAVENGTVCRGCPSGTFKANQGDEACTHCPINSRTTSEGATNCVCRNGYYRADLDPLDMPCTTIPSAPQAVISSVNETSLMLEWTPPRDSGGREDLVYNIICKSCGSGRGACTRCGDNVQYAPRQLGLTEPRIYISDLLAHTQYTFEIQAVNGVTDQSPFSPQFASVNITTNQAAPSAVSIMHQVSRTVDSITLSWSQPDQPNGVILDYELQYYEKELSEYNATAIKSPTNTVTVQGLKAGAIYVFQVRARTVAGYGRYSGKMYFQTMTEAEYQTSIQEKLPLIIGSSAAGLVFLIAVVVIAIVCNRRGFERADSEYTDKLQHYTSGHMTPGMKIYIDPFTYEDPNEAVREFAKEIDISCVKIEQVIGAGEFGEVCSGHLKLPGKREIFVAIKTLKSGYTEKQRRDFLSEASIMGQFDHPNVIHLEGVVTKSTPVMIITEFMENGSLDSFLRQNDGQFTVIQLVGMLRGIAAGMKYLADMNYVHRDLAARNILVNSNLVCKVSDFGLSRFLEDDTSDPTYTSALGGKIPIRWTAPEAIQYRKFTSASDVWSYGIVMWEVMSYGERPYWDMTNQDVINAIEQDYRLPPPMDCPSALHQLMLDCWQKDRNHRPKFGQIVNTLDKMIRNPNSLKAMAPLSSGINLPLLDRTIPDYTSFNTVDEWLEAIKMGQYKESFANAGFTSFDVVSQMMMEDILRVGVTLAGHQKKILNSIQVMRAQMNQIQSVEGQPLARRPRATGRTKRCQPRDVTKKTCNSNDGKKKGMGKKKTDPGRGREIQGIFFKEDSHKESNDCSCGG
# Chain of MERTK (Q12866 whole entry, looked up): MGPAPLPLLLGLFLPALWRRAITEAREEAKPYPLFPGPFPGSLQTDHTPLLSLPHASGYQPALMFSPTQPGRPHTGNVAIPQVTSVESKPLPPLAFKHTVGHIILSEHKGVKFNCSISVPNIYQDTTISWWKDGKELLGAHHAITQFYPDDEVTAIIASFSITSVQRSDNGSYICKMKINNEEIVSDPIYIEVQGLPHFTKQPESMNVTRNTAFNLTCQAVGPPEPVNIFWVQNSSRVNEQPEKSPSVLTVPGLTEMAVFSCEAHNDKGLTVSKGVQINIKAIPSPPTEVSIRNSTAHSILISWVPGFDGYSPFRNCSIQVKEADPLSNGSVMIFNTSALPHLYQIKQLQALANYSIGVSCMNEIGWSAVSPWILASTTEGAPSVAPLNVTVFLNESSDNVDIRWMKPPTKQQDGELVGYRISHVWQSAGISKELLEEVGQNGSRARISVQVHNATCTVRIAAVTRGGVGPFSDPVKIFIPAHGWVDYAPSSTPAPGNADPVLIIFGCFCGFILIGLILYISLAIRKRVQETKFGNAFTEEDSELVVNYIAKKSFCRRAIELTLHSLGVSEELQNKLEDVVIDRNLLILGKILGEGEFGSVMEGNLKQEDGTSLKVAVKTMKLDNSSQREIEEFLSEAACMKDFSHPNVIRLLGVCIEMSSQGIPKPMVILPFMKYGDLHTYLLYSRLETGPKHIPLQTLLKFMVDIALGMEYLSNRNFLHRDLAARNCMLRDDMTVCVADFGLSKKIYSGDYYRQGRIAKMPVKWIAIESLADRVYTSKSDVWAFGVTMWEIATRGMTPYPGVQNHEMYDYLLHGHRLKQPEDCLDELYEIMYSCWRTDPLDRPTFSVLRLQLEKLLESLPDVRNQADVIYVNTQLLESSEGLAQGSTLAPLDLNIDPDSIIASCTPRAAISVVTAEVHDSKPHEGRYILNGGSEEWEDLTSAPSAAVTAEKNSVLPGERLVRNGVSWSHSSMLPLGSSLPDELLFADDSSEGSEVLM
# Chain of Hck (P08631 whole entry, looked up, the tested form may be a part): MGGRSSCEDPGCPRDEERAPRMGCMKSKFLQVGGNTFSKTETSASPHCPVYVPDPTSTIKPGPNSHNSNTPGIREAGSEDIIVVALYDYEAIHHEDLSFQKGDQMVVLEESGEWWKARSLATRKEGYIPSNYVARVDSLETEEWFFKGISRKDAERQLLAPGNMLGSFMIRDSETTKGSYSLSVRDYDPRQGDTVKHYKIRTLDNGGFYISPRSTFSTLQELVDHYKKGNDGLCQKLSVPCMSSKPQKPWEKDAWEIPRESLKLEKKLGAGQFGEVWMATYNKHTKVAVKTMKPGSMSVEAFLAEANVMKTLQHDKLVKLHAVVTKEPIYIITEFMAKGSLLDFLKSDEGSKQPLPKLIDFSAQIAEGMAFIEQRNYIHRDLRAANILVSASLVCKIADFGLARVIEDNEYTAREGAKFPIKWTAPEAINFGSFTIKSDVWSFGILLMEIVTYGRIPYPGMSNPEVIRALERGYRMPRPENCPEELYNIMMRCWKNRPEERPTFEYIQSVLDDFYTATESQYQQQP
SH2 binding enrichment (Grb2 SH2),SH2 binding enrichment (c-Src SH2),SH2 binding enrichment (SHP2-C SH2),Sequence,phosphorylation enrichment (MERTK),phosphorylation enrichment (Fer (mouse)),phosphorylation enrichment (Fes),phosphorylation enrichment (Jak2),phosphorylation enrichment (EPHB1),phosphorylation enrichment (EPHB2),phosphorylation enrichment (Fyn),phosphorylation enrichment (FGFR3),phosphorylation enrichment (c-Src),phosphorylation enrichment (c-Abl (mouse)),phosphorylation enrichment (FGFR1),phosphorylation enrichment (AncSZ),phosphorylation enrichment (Hck)
0.726,0.495,0.65,THEVRYISAGQ [SLCO4A1_Y77_V78I],0.408,0.379,0.705,0.669,0.426,0.396,0.391,0.53,0.418,0.838,0.361,0.683,0.416
0.58,0.374,0.581,RFLRGYQQDAF [HLA-A_Y137_R138Q_YF],0.558,0.518,0.684,0.965,0.796,0.518,0.685,0.677,0.603,0.81,0.803,1.11,0.693
0.881,0.591,0.727,YEREQYADRAR [RBM4_Y355],0.29,0.441,0.707,0.575,0.383,0.432,0.37,0.534,0.338,0.531,0.495,0.701,0.439
0.803,0.518,0.768,MALDIYRASFF [ALK_Y1278_R1275L_YF],0.776,0.599,0.953,0.715,0.599,0.584,1.06,0.767,1.05,4.88,0.558,0.936,1.22
0.989,2.84,0.804,EICTQYEAMAS [GFAP_Y242_R239C],0.55,0.829,1.15,0.777,0.65,0.614,0.576,0.683,0.601,0.71,0.517,1.23,0.708
0.79,0.499,0.566,EQQNMYRLKVL [ABCC6_Y372],0.401,0.488,0.706,0.561,0.56,0.5,0.41,0.545,0.452,0.619,0.521,0.861,0.475
1.01,0.779,1.05,GCRSKYVGLWG [KCNQ1_Y184],0.463,0.408,0.708,0.605,0.41,0.456,0.38,0.506,0.452,0.511,0.432,0.61,0.363
0.766,0.513,0.614,KILAKYLLETS [NAMPT_Y175],0.385,0.411,0.664,0.645,0.431,0.412,0.35,0.421,0.395,0.571,0.353,0.66,0.368
0.585,0.376,0.467,STEVIYQPRRK [STK11_Y36],0.643,0.473,0.523,0.612,0.437,0.527,0.52,0.539,0.704,1,0.424,0.603,0.683
0.71,0.436,0.636,CTHDLYMFMRE [FGFR3_Y724_I726F],1.9,0.994,1.56,1.34,2.23,1.04,0.584,1.45,2.37,0.992,1.76,1.43,1.06
0.679,0.388,0.568,ALTDNYMFVVI [HAGH_Y61_L64V_YF],1.52,5.63,1.61,1.3,11.5,8.6,0.653,6.54,0.516,0.99,8.71,1.68,0.574
0.83,1.12,0.485,ITRDIYETDFF [INSR_Y1185_M1180I_YF],1.26,0.983,1.25,1.16,0.803,0.711,1.46,0.738,1.75,0.698,0.539,1.44,1.12
1.14,1.12,1.36,KKMKRYHVGKV [HARS2_Y151],0.43,0.293,0.514,0.554,0.492,0.313,0.349,0.486,0.45,0.482,0.298,0.466,0.341
0.902,0.534,0.841,EKEKKYMLPLD [DNM2_Y563],0.449,0.489,0.796,0.849,0.526,0.473,0.625,0.466,0.452,0.589,0.412,0.885,0.591
1.21,4,1.04,LCHELYNTIRD [PBRM1_Y54_V49L],0.796,0.869,1.03,2.44,0.675,0.785,1,0.905,3.39,0.929,0.973,1.21,6.12
0.883,1.32,0.631,PEVSGYCHFAD [TG_Y234_C237Y_YF],0.384,0.517,1.39,1.15,0.745,0.782,0.532,0.773,0.572,0.937,0.709,1.29,0.639

SH2 binding enrichment (Grb2 SH2),SH2 binding enrichment (c-Src SH2),SH2 binding enrichment (SHP2-C SH2),Sequence,phosphorylation enrichment (MERTK),phosphorylation enrichment (Fer (mouse)),phosphorylation enrichment (Fes),phosphorylation enrichment (Jak2),phosphorylation enrichment (EPHB1),phosphorylation enrichment (EPHB2),phosphorylation enrichment (Fyn),phosphorylation enrichment (FGFR3),phosphorylation enrichment (c-Src),phosphorylation enrichment (c-Abl (mouse)),phosphorylation enrichment (FGFR1),phosphorylation enrichment (AncSZ),phosphorylation enrichment (Hck)
0.794,0.458,0.732,DDFNLYINVKL [MTHFD1_Y52_S49F],0.483,0.38,1.67,1.67,0.86,0.563,0.46,0.997,0.472,0.984,0.511,1.47,0.558
0.769,1.02,0.563,SRGSSYSSIPK [FLNC_Y2625],0.489,0.37,0.518,0.498,0.304,0.322,0.358,0.362,0.444,0.428,0.479,0.474,0.381
0.654,0.418,0.399,PAKPRYRARQR [KCNJ11_Y26_E23K],0.935,0.767,0.877,0.955,0.774,1.06,0.813,0.642,0.763,0.818,0.671,1.08,0.819
1.12,0.712,1.18,KLFFHYNPKLC [INSR_Y457],0.383,0.566,1.41,1.47,0.631,0.568,0.384,0.777,0.428,0.855,0.534,1.25,0.562
0.666,0.514,0.42,GGPAGYLRRAS [PKLR_Y38],0.528,0.377,0.678,0.529,0.406,0.398,0.636,0.442,0.429,0.671,0.405,0.717,0.458
1.05,1.33,0.639,SWVVPYEPPEV [TP53_Y220_V216W],0.39,0.577,1.23,0.957,0.553,0.631,0.463,0.861,0.411,0.851,0.599,1.44,0.542
1.27,1.11,1.6,PRLLRYLQLDF [ASB10_Y457],0.701,0.662,1.67,1.53,0.995,0.73,0.692,0.873,0.616,1.04,0.648,1.39,0.65
0.852,0.62,0.647,VDEERYDIEAK [TNNI3_Y112],0.439,0.519,1.24,1.12,0.516,0.708,0.513,0.697,0.483,0.752,0.555,1.13,0.724
0.677,0.499,0.668,QFLMKYVWSAS [ABCD1_Y337],0.528,0.565,1.49,1.42,0.582,0.541,0.3,0.759,0.559,0.929,0.513,1.15,0.587
0.876,0.688,0.818,WEQELYSQLVF [WAS_Y102_YF],8.62,14.4,2.71,1.38,8.61,11.6,8.54,4.51,6.47,1.81,4.85,2.24,7.88
0.771,0.495,0.927,THEVRYVSAGQ [SLCO4A1_Y77],0.368,0.47,0.773,0.632,0.393,0.368,0.398,0.45,0.366,0.485,0.416,0.733,0.374
1.15,0.79,0.782,KSSDVYVSFDC [SORL1_Y136_Y141C_YF],0.803,0.733,1.18,0.889,1.41,0.802,5.22,1.61,3.34,0.786,1.92,1.44,2.16
1.65,1.19,1.89,LMVFEYMRHGN [NTRK1_Y591_D596N],0.457,0.466,1.44,1.54,0.797,0.692,0.664,0.707,0.539,0.912,0.55,0.998,0.597
1.01,0.552,0.604,LDFNEYFRDLN [HPRT1_Y198_YF],0.423,0.382,1.15,0.998,0.442,0.461,0.465,0.697,0.473,0.606,0.513,1.24,0.486
1.13,0.567,1.1,LSSISYVGCSL [ADGRD1_Y571],0.541,0.445,1.01,0.871,0.76,1.11,0.681,0.838,0.605,0.79,0.719,1.01,0.747
0.832,4.46,0.592,GNFSGYDDAWD [POLR1C_Y36_YF],0.48,0.479,1.43,1.28,0.574,0.568,0.454,0.731,0.584,1.03,0.428,1.14,0.461

Sequence,SH2 binding enrichment (Grb2 SH2),SH2 binding enrichment (c-Src SH2),SH2 binding enrichment (SHP2-C SH2),phosphorylation enrichment (MERTK),phosphorylation enrichment (Fer (mouse)),phosphorylation enrichment (Fes),phosphorylation enrichment (Jak2),phosphorylation enrichment (EPHB1),phosphorylation enrichment (EPHB2),phosphorylation enrichment (Fyn),phosphorylation enrichment (FGFR3),phosphorylation enrichment (c-Src),phosphorylation enrichment (c-Abl (mouse)),phosphorylation enrichment (FGFR1),phosphorylation enrichment (AncSZ),phosphorylation enrichment (Hck)
TTKAKYKTPTY [PLD2_Y573],0.906,0.541,0.848,0.362,0.336,0.501,0.488,0.328,0.313,0.393,0.32,0.406,0.539,0.287,0.473,0.443
